Data reported in patent US20230235004A1 (published 2023).
Residue numbers refer to the chain shown, from its start.

B1: MAdCAM antibody Table 1 clone 16 (scFv)
scFv: EVQLLESGGGLVQPGGSLRLSCAASGFTFEDYAMHWVRQAPGKGLEWVSYLNSDGGSTSYADSVKGRFTISRDNSKNTLYLQMNSLRAEDTAVYYCAKDYCTNGVCAFDYWGQGTLVTVSSGGGGSGGGGSGGGGSGGGGSDIQMTQSPSSLSASVGDRVTITCRASQSISTYLNWYQQKPGKAPKLLIYDASNLETGVPSRFSGSGSGTDFTLTISSLQPEDFATYYCQQSYTIPITFGQGTRLEIK
B2: MAdCAM antibody Table 1 clone 17 (scFv)
scFv: EVQLLESGGGLVQPGGSLRLSCAASGFTFSDSAMHWVRQAPGKGLEWVSAISGSGSTIYYADSVKGRFTISRDNSKNTLYLQMNSLRAEDTAVYYCVSDIAVAGHWYFDLWGRGTLVTVSSGGGGSGGGGSGGGGSGGGGSDIQMTQSPSSLSASVGDRVTITCRASQSISTFLNWYQQKPGKAPKLLIYAASRLEGGVPSRFSGSGSGTDFTLTISSLQPEDFATYYCQQANSFPLTFGPGTKVDIK
B3: MAdCAM antibody Table 1 clone 21 (scFv)
scFv: EVQLLESGGGLVQPGGSLRLSCAASGFTFSNAWMSWVRQAPGKGLEWVSTIVGNGGATYYADSVKGRFTISRDNSKNTLYLQMNSLRAEDTAVYYCARDNPLRWQGMDVWGQGTLVTVSSGGGGSGGGGSGGGGSGGGGSDIQMTQSPSSLSASVGDRVTITCRASQDISNYLNWYQQKPGKAPKLLIYAASSLQSGVPSRFSGSGSGTDFTLTISSLQPEDFATYYCQQSYSIPPTFGPGTKVDIK
B4: MAdCAM antibody Table 1 clone 10 (scFv)
scFv: QVQLVQSGAEVKKPGASVKVSCKASGYTLTTWYMYWVRQAPGQGLEWMGWINPNRGATNYAQKFQGRVTMTRDTSTSTVYMELSSLRSEDTAVYYCAKGDLWGAMDVWGQGTLVTVSSGGGGSGGGGSGGGGSGGGGSDIQMTQSPSSLSASVGDRVTITCRASDNIGSWLAWYQQKPGKAPKLLIYAASSLQSGVPSRFSGSGSGTDFTLTISSLQPEDFATYYCQQGYSTPPTFGQGTKVEIK
B5: MAdCAM antibody Table 1 clone 26 (scFv)
scFv: B4 scFv with L113T
B6: MAdCAM antibody Table 1 clone 27 (scFv)
scFv: QVQLVQSGAEVKKPGASVKVSCKASGYTFTGYYIHWVRQAPGQGLEWMGWMNPNSGNTGYAQKFQGRVTMTRDTSTSTVYMELSSLRSEDTAVYYCARDPGFLGYCSGGSCYDGWFDPWGQGTLVTVSSGGGGSGGGGSGGGGSGGGGSDIQMTQSPSSLSASVGDRVTITCRASQSISSYLHWYQQKPGKAPKLLIYAASSLQSGVPSRFSGSGSGTDFTLTISSLQPEDFATYYCQQSYTAPYTFGQGTKLEIK
B7: MAdCAM antibody Table 1 clone 28 (scFv)
scFv: QVQLVQSGAEVKKPGASVKVSCKASGYTFTDYFLHWVRQAPGQGLEWMGWMNPTSGNTGYAQKFQGRVTMTRDTSTSTVYMELSSLRSEDTAVYYCAREGEGSGFDYWGQGTLVTVSSGGGGSGGGGSGGGGSGGGGSDIQMTQSPSSLSASVGDRVTITCRASQGINSWLAWYQQKPGKAPKLLIYDASNLETGVPSRFSGSGSGTDFTLTISSLQPEDFATYYCQQSYSTPLTFGGGTKVEIK
B8: MAdCAM antibody Table 1 clone 29 (scFv)
scFv: QVQLVQSGAEVKKPGASVKVSCKASGYTFTSYYMHWVRQAPGQGLEWMAWMNPNSGNTGYAQKFQGRVTMTRDTSTSTVYMELSSLRSEDTAVYYCARDYDFWSGSLGYWGQGTLVTVSSGGGGSGGGGSGGGGSGGGGSDIQMTQSPSSLSASVGDRVTITCRASQGISNYLAWYQQKPGKAPKLLIYAASSLQSGVPSRFSGSGSGTDFTLTISSLQPEDFATYYCQQSYSTPWTFGQGTKVEIK
B9: MAdCAM antibody Table 1 clone 31 (scFv)
scFv: QVQLVQSGAEVKKPGASVKVSCKASGYTFTSYYMHWVRQAPGQGLEWMGIINPSGGSTSYAQKFQGRVTMTRDTSTSTVYMELSSLRSEDTAVYYCARDTGYSYGRYYYYGMDVWGQGTLVTVSSGGGGSGGGGSGGGGSGGGGSDIQMTQSPSSLSASVGDRVTITCRASQSIGRWLAWYQQKPGKAPKLLIYDASNLQSGVPSRFSGSGSGTDFTLTISSLQPEDFATYYCQQSYSIPITFGQGTKVEIK
B10: MAdCAM antibody Table 1 clone 36 (scFv)
scFv: B9 scFv with S31G, Y32H, L120T, Q245G
B11: MAdCAM antibody Table 1 clone 32 (scFv)
scFv: QVQLVQSGAEVKKPGASVKVSCKASGYTLTDYYMHWVRQAPGQGLEWMGIINPSGGSTSYAQKFQGRVTMTRDTSTSTVYMELSSLRSEDTAVYYCAREEYSSSSGYFDYWGQGTLVTVSSGGGGSGGGGSGGGGSGGGGSDIQMTQSPSSLSASVGDRVTITCRASQGISSWLAWYQQKPGKAPKLLIYAASSLQSGVPSRFSGSGSGTDFTLTISSLQPEDFATYYCQQSYSTPLTFGQGTKVEIK
B12: MAdCAM antibody Table 1 clone 25 (scFv)
scFv: B4 scFv
B13: MAdCAM antibody Table 1 clone 30 (scFv)
scFv: B4 scFv
B14: MAdCAM antibody Table 1 clone 8 (scFv)
scFv: EVQLLESGGGLVQPGGSLRLSCAASGFMFGDYAMHWVRQAPGKGLEWVSAISGSGGSTYYADSVKGRFTISRDNSKNTLYLQMNSLRAEDTAVYYCAKDLVVAGIWYFDLWGRGTLVTVSSGGGGSGGGGSGGGGSGGGGSDIQMTQSPSSLSASVGDRVTITCRASQGISNNLNWYQQKPGKAPKLLIYDASSLESGVPSRFSGSGSGTDFTLTISSLQPEDFATYYCQQTHSFPSTFGQGTKLEIK
B15: MAdCAM Antibody Table 2 clone 73 (antibody, V domains shown)
VH: QVQLVQSGAEVKKPGASVKVSCKASGYTFTSNYVHWVRQAPGQGLEWMGRINPHSGDTSYAQKFQGRVTMTRDTSTSTVYMELSSLRSEDTAVYYCARAGQLWSDWYFDLWGRGTLVTVSS
VL: DIQMTQSPSSLSASVGDRVTITCQASQDIRNYLNWYQQKPGKAPKLLIYAATALRTGVPSRFSGSGSGTDFTLTISSLQPEDFATYYCQQSYSHPLTFGQGTKVEIK
notes: IgG format
B16: MAdCAM Antibody Table 2 clone 77 (antibody, V domains shown)
VH: EVQLLESGGGLVQPGGSLRLSCAASEFTFSNAWMSWVRQAPGKGLEWVASISSTSAYIDYADSVKGRFTISRDNSKNTLYLQMNSLRAEDTAVYYCAREVVGATTFDYWGQGTLVTVSS
VL: DIQMTQSPSSLSASVGDRVTITCRASQSISTWLAWYQQKPGKAPKLLIYAASSLQSGVPSRFSGSGSGTDFTLTISSLQPEDFATYYCQQANAFPPTFGQGTRLEIK
notes: IgG format
B17: MAdCAM Antibody Table 2 clone 80 (antibody, V domains shown)
VH: EVQLLESGGGLVQPGGSLRLSCAASGFTFDDYAMHWVRQAPGKGLEWVSAISGSGGSTYYADSVKGRFTISRDNSKNTLYLQMNSLRAEDTAVYYCAKDLGVVVPAALDYWGQGTTVTVSS
VL: B15 VL with R30S, Y32H, A50D, T52S, A53N, R55E, T56A, H94T, Q100G
notes: IgG format
B18: MAdCAM Antibody Table 2 clone 81 (antibody, V domains shown)
VH: EVQLLESGGGLVKPGGSLRLSCAASGFAFSSHWMHWVRQAPGKGLEWVAGTSGSGESRDYADFVKGRFTISRDDSKNTLYLQMNSLKTEDTAVYYCARETYYYYYMDVWGKGTTVTVSS
VL: DIQMTQSPSSLSASVGDRVTITCRASQGISNYLAWYQQKPGKAPKLLIYDAANLEGGVPSRFSGSGSGTDFTLTISSLQPEDFATYYCQQSDIFPPTFGQGTKVEIK
notes: IgG format

target: T1, mouse MAdCAM expressed on cells (mouse, UniProt Q61826 22-405); test: cell binding
T1 construct: whole, on cells
T1 sequence (looked up): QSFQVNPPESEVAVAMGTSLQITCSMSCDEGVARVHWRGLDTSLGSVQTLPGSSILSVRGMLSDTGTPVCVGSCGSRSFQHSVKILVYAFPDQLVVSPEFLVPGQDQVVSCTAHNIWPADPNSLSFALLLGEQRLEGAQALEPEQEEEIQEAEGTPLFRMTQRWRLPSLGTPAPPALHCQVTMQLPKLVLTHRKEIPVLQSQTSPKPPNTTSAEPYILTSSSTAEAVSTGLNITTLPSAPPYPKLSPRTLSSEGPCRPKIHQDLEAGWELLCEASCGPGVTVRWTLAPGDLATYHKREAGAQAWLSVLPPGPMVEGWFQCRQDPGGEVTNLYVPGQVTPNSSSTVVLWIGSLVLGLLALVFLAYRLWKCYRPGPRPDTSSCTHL

Row | Binder | binding result
1 | B1 | no binding
2 | B2 | no binding
3 | B3 | no binding
4 | B4 | no binding
5 | B5 | no binding
6 | B6 | no binding
7 | B7 | no binding
8 | B8 | no binding
9 | B9 | no binding
10 | B10 | no binding
11 | B11 | no binding
12 | B12 | no binding
13 | B13 | no binding
14 | B14 | no binding

target: T2, human MAdCAM expressed on cells (human, UniProt Q13477 19-382); test: cell binding
T2 construct: whole, on cells
T2 sequence (looked up): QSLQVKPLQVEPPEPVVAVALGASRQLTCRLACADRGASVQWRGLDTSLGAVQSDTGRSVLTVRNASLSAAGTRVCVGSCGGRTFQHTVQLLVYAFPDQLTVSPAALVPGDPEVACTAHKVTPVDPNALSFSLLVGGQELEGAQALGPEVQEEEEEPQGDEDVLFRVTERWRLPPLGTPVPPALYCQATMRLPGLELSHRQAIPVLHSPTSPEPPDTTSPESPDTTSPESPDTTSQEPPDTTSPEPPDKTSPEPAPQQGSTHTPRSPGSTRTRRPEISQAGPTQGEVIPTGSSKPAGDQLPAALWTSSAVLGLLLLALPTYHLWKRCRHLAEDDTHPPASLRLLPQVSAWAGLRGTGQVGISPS

Row | Binder | binding result
15 | B1 | binds
16 | B2 | binds
17 | B3 | binds
18 | B4 | binds
19 | B5 | binds
20 | B6 | binds
21 | B7 | binds
22 | B8 | binds
23 | B9 | binds
24 | B10 | binds
25 | B11 | binds

target: T1, mouse MAdCAM expressed on cells; test: cell binding; remark: another data set of the same source

Row | Binder | binding result
26 | B15 | no binding
27 | B16 | binds
28 | B17 | no binding
29 | B18 | binds

target: T2, human MAdCAM expressed on cells; test: cell binding; remark: another data set of the same source

Row | Binder | binding result
30 | B15 | binds
31 | B16 | binds
32 | B17 | binds
33 | B18 | binds
